From article PMC6530537 (2019) come the findings set out here.

For the test, the target named is CK2β (Homo sapiens, UniProt P67870). Description: ITC.
Sequence of CK2β (P67870 2-215): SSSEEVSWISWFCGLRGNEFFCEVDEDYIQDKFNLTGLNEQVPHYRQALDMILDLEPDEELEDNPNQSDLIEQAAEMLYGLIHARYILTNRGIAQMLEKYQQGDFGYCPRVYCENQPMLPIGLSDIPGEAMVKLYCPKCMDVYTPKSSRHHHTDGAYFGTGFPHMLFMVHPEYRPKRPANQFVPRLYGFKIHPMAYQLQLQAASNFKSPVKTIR

B1: CK2α (protein)
chain: MSGPVPSRARVYTDVNTHRPREYWDYESHVVEWGNQDDYQLVRKLGRGKYSEVFEAINITNNEKVVVKILKPVKKKKIKREIKILENLRGGPNIITLADIVKDPVSRTPALVFEHVNNTDFKQLYQTLTDYDIRFYMYEILKALDYCHSMGIMHRDVKPHNVMIDHEHRKLRLIDWGLAEFYHPGQEYNVRVASRYFKGPELLVDYQMYDYSLDMWSLGCMLASMIFRKEPFFHGHDNYDQLVRIAKVLGTEDLYDYIDKYNIELDPRFNDILGRHSRKRWERFVHSENQHLVSPEALDFLDKLLRYDHQSRLTAREAMEHPYFYTVVKDQARMGSSSMPGGSTPVSSANMMSGISSVPTPSPLGPLAGSPVIAAANPLGMPVPAAAGAQQ
Take B1: the affinity, expressed as Kd, was 9 nM.
